Experimental findings from paper PMC12105186 (Cell Communication and Signaling : CCS, 2025) are described below.

Several values for one entry are separate records, joined by “and”; a condition that tells them apart may be missing. Identical values can stand only once.

Data set [1] concerns the target N-terminally 6×His-tagged AB region of hRXRγ (human). Briefly: MST.
Data set [2] concerns the molecule itself. Briefly: AUC.
Data set [3] deals with the molecule itself. Briefly: SEC-MALS.

By Kd is commonly meant the equilibrium constant for the complex coming apart. High values mean weaker binding, low ones tighter binding. On to “deletion mutant of human RXRγ lacking the AB region (ΔABhRXRγ) (from UniProt P48443 128-463) (domain or fragment)”, for which the Kd in data set [1] is 11.1 µM.

B1: full-length human retinoid X receptor γ (hRXRγ) (receptor, UniProt P48443 1-463, looked up)
chain: MYGNYSHFMKFPAGYGGSPGHTGSTSMSPSAALSTGKPMDSHPSYTDTPVSAPRTLSAVGTPLNALGSPYRVITSAMGPPSGALAAPPGINLVAPPSSQLNVVNSVSSSEDIKPLPGLPGIGNMNYPSTSPGSLVKHICAICGDRSSGKHYGVYSCEGCKGFFKRTIRKDLIYTCRDNKDCLIDKRQRNRCQYCRYQKCLVMGMKREAVQEERQRSRERAESEAECATSGHEDMPVERILEAELAVEPKTESYGDMNMENSTNDPVTNICHAADKQLFTLVEWAKRIPHFSDLTLEDQVILLRAGWNELLIASFSHRSVSVQDGILLATGLHVHRSSAHSAGVGSIFDRVLTELVSKMKDMQMDKSELGCLRAIVLFNPDAKGLSNPSEVETLREKVYATLEAYTKQKYPEQPGRFAKLLLRLPALRSIGLKCLEHLFFFKLIGDTPIDTFLMEMLETPLQIT
As usually defined, the stoichiometry N is the number of molecules, sites or subunits per partner or assembly. Turning to B1, in data set [2], the “stoichiometry N” value turned out to be 5.

B2: deletion mutant of human RXRγ lacking the AB region (ΔABhRXRγ) (domain or fragment, UniProt P48443 128-463, looked up)
chain: STSPGSLVKHICAICGDRSSGKHYGVYSCEGCKGFFKRTIRKDLIYTCRDNKDCLIDKRQRNRCQYCRYQKCLVMGMKREAVQEERQRSRERAESEAECATSGHEDMPVERILEAELAVEPKTESYGDMNMENSTNDPVTNICHAADKQLFTLVEWAKRIPHFSDLTLEDQVILLRAGWNELLIASFSHRSVSVQDGILLATGLHVHRSSAHSAGVGSIFDRVLTELVSKMKDMQMDKSELGCLRAIVLFNPDAKGLSNPSEVETLREKVYATLEAYTKQKYPEQPGRFAKLLLRLPALRSIGLKCLEHLFFFKLIGDTPIDTFLMEMLETPLQIT
With B2, the “stoichiometry N” value was 2 and 6 in data set [2]; 4 in data set [3].
